Laboratory results from US20170227547A1 (Hoffmann-La Roche, published 2017).
Substitutions are numbered along the chain they refer to. Names and notes keep the numbering of the source.

Columns and labels:
[1] = molecular target: human neonatal Fc receptor (FcRn), non-covalent complex with beta-2-microglobulin (human) (UniProt P55899); experiment: FcRn affinity column (Example 2), Fc-region after IdeS cleavage
[2] = molecular target: human neonatal Fc receptor (FcRn), non-covalent complex with beta-2-microglobulin (human) (UniProt P55899); experiment: FcRn affinity column, run of the Bevacizumab comparison
[3] = molecular target: T1, human IL-12 (human, UniProt P29459 23-219; P29460 23-328); experiment: IL-12 ELISA, concentration calculated from the fit of the Briakinumab calibration curve
T1 construct: also called interleukin 12
T1 sequence (looked up) 1: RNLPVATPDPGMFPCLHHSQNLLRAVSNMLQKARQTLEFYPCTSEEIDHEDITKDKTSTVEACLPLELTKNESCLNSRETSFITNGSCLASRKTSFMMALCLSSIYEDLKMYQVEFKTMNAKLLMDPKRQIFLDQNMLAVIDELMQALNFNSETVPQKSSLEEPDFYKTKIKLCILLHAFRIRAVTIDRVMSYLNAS
T1 sequence (looked up) 2: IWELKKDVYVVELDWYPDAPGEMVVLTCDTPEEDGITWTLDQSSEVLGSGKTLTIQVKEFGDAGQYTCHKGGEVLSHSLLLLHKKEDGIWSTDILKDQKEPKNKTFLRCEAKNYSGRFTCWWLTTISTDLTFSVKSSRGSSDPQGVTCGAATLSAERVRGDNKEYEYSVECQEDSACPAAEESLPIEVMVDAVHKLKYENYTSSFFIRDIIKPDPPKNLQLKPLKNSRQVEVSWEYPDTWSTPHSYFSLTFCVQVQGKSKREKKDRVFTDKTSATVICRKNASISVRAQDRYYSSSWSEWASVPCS

[4] = molecular target: human neonatal Fc receptor (FcRn), non-covalent complex with beta-2-microglobulin (human) (UniProt P55899); experiment: SPR, huFcRn immobilised, pH 6.0, steady state affinity normalised to Ustekinumab
[5] = molecular target: T1, human IL-12; experiment: SPR, IL-12
[6] = molecular target: human neonatal Fc receptor (FcRn), non-covalent complex with beta-2-microglobulin (human) (UniProt P55899); experiment: FcRn affinity chromatography, pH gradient 5.5-8.8, 140 mM NaCl (Example 2)
[7] = molecular target: human neonatal Fc receptor (FcRn), non-covalent complex with beta-2-microglobulin (human) (UniProt P55899); experiment: FcRn affinity column (Example 2)
[8] = molecular target: human neonatal Fc receptor (FcRn), non-covalent complex with beta-2-microglobulin (human) (UniProt P55899); experiment: FcRn affinity chromatography, pH gradient (Example 2), pH measured offline
[9] = molecular target: human neonatal Fc receptor (FcRn), non-covalent complex with beta-2-microglobulin (human) (UniProt P55899); experiment: SPR, FcRn, buffer pH 7.0
[10] = molecular target: human neonatal Fc receptor (FcRn), non-covalent complex with beta-2-microglobulin (human) (UniProt P55899); experiment: SPR, FcRn, buffer pH 6.6
[11] = molecular target: human neonatal Fc receptor (FcRn), non-covalent complex with beta-2-microglobulin (human) (UniProt P55899); experiment: SPR, huFcRn immobilised, pH 6.0, steady state affinity normalised to Ustekinumab; SPR steady state, pH 6.0, KD relative to Ustekinumab = 1
[12] = molecular target: human neonatal Fc receptor (FcRn), non-covalent complex with beta-2-microglobulin (human) (UniProt P55899); experiment: FcRn affinity column, Example 3 method, elution buffer 20 mM Tris/HCl, 400 mM NaCl, pH 8.8; FcRn affinity column, Example 3, high salt 400 mM NaCl
[13] = molecular target: human neonatal Fc receptor (FcRn), non-covalent complex with beta-2-microglobulin (human) (UniProt P55899); experiment: SPR, FcRn, buffer pH 6.8
[14] = molecular target: human neonatal Fc receptor (FcRn), non-covalent complex with beta-2-microglobulin (human) (UniProt P55899); experiment: FcRn affinity chromatography, pH gradient (Example 2), pH measured offline; FcRn affinity column, Example 2; elution pH at 93.7 min
[15] = molecular target: human neonatal Fc receptor (FcRn), non-covalent complex with beta-2-microglobulin (human) (UniProt P55899); experiment: SPR, FcRn, buffer pH 6.0
[16] = molecular target: human neonatal Fc receptor (FcRn), non-covalent complex with beta-2-microglobulin (human) (UniProt P55899); experiment: SPR, FcRn, buffer pH 6.4
[17] = molecular target: human neonatal Fc receptor (FcRn), non-covalent complex with beta-2-microglobulin (human) (UniProt P55899); experiment: FcRn affinity chromatography, pH gradient 5.5-8.8, 140 mM NaCl (Example 2); FcRn affinity column, Example 2, 140 mM NaCl, pH gradient; complete antibody
[18] = molecular target: human neonatal Fc receptor (FcRn), non-covalent complex with beta-2-microglobulin (human) (UniProt P55899); experiment: FcRn affinity chromatography, pH gradient (Example 2), pH measured offline; FcRn affinity column, Example 2; elution pH at 84.3 min
[19] = molecular target: human neonatal Fc receptor (FcRn), non-covalent complex with beta-2-microglobulin (human) (UniProt P55899); experiment: SPR, huFcRn immobilised, pH 6.0, steady state affinity normalised to Ustekinumab; SPR steady state, pH 6.0; the reference, set to 1
[20] = molecular target: T1, human IL-12; experiment: IL-12 ELISA, absorbance against antibody concentration

Chain of human neonatal Fc receptor (FcRn), non-covalent complex with beta-2-microglobulin (human) (P55899 other isoform, or with tags, fused parts or gaps limits assumed, chain 1 of 2): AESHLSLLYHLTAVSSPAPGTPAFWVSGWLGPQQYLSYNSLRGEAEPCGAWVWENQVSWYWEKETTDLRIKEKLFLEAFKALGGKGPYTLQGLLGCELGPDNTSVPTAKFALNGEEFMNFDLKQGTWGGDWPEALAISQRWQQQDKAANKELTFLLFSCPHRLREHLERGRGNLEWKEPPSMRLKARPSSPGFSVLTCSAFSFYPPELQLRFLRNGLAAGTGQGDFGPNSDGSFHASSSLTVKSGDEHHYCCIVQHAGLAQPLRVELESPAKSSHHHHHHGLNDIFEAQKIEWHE
Chain of human neonatal Fc receptor (FcRn), non-covalent complex with beta-2-microglobulin (human) (b2m, as listed by the source limits assumed, chain 2 of 2): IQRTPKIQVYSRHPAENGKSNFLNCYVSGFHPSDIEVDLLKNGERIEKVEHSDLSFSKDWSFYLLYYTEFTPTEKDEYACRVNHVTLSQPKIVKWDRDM

IdeS-cleaved Fc-region of Ustekinumab
FcRn column retention time [1]: 85.2 min

Bevacizumab-wild-type (antibody)
FcRn column retention time [2]: 84.7 min

IdeS-cleaved Fc-region of Briakinumab
FcRn column retention time [1]: 85.7 min

B1: mAb 2 (antibody, V domains shown)
VH: QVQLVESGGGVVQPGRSLRLSCAASGFTFSSYGMHWVRQAPGKGLEWVAFIRYDGSNKYYADSVKGRFTISRDNSKNTLYLQMNSLRAEDTAVYYCKTHGSHDNWGQGTMVTVSS
VL: QSVLTQPPSVSGAPGQRVTISCSGSRSNIGSNTVKWYQQLPGTAPKLLIYYNDQRPSGVPDRFSGSKSGTSASLAITGLQAEDEADYYCQSYDRYTHPALLFGTGTKVTVLG
notes: Fv domain of Briakinumab on the Ustekinumab constant domains (IgG1)
window of IL-12 binding relative to Briakinumab (Briakinumab=100%) [3]: ≤ 20% | rel. KD (Ustekinumab = 1) [4]: 0.3 | Kd [5]: 0.25 nM | koff [5]: 0.0003 s⁻¹ | kon [5]: 1.2e+06 M⁻¹ s⁻¹ | FcRn column retention time [6]: 93 min

B2: mAb 8 (antibody, IgG1, V domains shown)
VH: B1 VH with R16A, R19A, K58A, K65A, R87A
VL: QSVLTQPPSVSGAPGQRVTISCSGSRSNIGSNTVKWYQQLPGTAPKLLIYYNDQRPSGVPDRFSGSKSGTSASLAITGLQAEDEADYYCQSYDRYTHPALLFGTGTKVTVL
notes: Briakinumab variant (IgG1) with five positively charged heavy chain residues mutated; also called Briakinumab with HC mutations R16A, R19A, K57A, K64A, R83A
FcRn column retention time [7]: 90.1 min | rel. KD (Ustekinumab = 1) [4]: 0.4 | Kd [5]: 0.07 nM | koff [5]: 9.1e-05 s⁻¹ | kon [5]: 1.2e+06 M⁻¹ s⁻¹ | FcRn column retention time [6]: 90.1 min | FcRn column elution pH [8]: 7.7 pH

B3: Briakinumab (antibody, V domains shown)
VH: B1 VH
VL: B1 VL
notes: Fully human IgG1; also called ABT 874; J 695
FcRn column retention time [7]: 93.7 min | Kd [9]: 4200 nM | Kd [10]: 360 nM | FcRn column retention time [2]: 91.6 min | rel. KD (Ustekinumab = 1) [11]: 0.2 | FcRn column retention time [12]: 83.1 min | Kd [13]: 600 nM | window of IL-12 binding relative to Briakinumab (Briakinumab=100%) [3]: ≤ 20% | rel. KD (Ustekinumab = 1) [4]: 0.2 | FcRn column elution pH [14]: 7.9 pH | Kd [5]: 0.07 nM | koff [5]: 6e-05 s⁻¹ | kon [5]: 800000 M⁻¹ s⁻¹ | Kd [15]: 90 nM | Kd [16]: 100 nM | FcRn column retention time [17]: 93.7 min

B4: mAb 9 (antibody, IgG1, V domains shown)
VH: B1 VH
VL: B2 VL with R26A, R55A, R94A
notes: Briakinumab variant (IgG1) with three positively charged residues of the light chain CDRs mutated to alanine; also called Briakinumab with LC mutations R27A, R55A, R94A
FcRn column retention time [7]: 86.2 min | rel. KD (Ustekinumab = 1) [4]: 0.4 | Kd [5]: 0.01 nM | koff [5]: 0.00013 s⁻¹ | kon [5]: 8.8e+06 M⁻¹ s⁻¹ | FcRn column retention time [6]: 86.2 min | FcRn column elution pH [8]: 7.5 pH

B5: Ustekinumab (antibody, V domains shown)
VH: EVQLVQSGAEVKKPGESLKISCKGSGYSFTTYWLGWVRQMPGKGLDWIGIMSPVDSDIRYSPSFQGQVTMSVDKSITTAYLQWNSLKASDTAMYYCARRRPGQGYFDFWGQGTLVTVSS
VL: DIQMTQSPSSLSASVGDRVTITCRASQGISSWLAWYQQKPEKAPKSLIYAASSLQSGVPSRFSGSGSGTDFTLTISSLQPEDFATYYCQQYNIYPYTFGQGTKLEIK
notes: Fully human IgG1; also called CNTO 1275; Stelara
FcRn column retention time [7]: 84.3 min | Kd [10]: 3100 nM | FcRn column retention time [2]: 83.6 min | FcRn column elution pH [18]: 7.4 pH | FcRn column retention time [12]: 80.4 min | window of IL-12 binding relative to Briakinumab (Briakinumab=100%) [3]: ≤ 20% | rel. KD (Ustekinumab = 1) [4]: 1 | Kd [5]: 0.2 nM | koff [5]: 0.00018 s⁻¹ | kon [5]: 900000 M⁻¹ s⁻¹ | Kd [15]: 390 nM | rel. KD (Ustekinumab = 1) [19]: 1 | Kd [16]: 1000 nM | FcRn column retention time [17]: 84.3 min

B6: mAb 3 (antibody, V domains shown)
VH: B5 VH
VL: B1 VL
notes: Heavy chains of Ustekinumab and light chains of Briakinumab (whole chains)
binding result [20]: no binding (tested: 12 ng/mL) | rel. KD (Ustekinumab = 1) [4]: 0.2 | FcRn column retention time [6]: 92.4 min

B7: mAb 1 (antibody, V domains shown)
VH: B5 VH
VL: B5 VL
notes: Fv domain of Ustekinumab on the constant parts of Briakinumab (IgG1)
rel. KD (Ustekinumab = 1) [4]: 1 | Kd [5]: 0.24 nM | koff [5]: 0.00041 s⁻¹ | kon [5]: 1.7e+06 M⁻¹ s⁻¹ | FcRn column retention time [6]: 84.3 min
